Reference: PMC7097781 (Nature Structural & Molecular Biology, 2013)

Target: T1, human MacroD2 macrodomain (aa 7–243), wild type (human, UniProt A1Z1Q3 7-243)
T1 sequence (looked up): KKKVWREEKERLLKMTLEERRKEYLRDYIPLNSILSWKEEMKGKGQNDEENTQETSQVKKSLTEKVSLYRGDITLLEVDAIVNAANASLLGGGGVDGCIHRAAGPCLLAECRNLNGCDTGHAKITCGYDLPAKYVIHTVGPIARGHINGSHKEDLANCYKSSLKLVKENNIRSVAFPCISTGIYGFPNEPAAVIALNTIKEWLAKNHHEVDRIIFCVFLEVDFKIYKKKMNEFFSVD
Experiment: pull-down

B1: GST-PARP10 catalytic domain (aa 818–1025), ADP-ribosylated (domain or fragment, UniProt Q53GL7 818-1025, looked up)
chain: NNLERLAENTGEFQEVVRAFYDTLDAARSSIRVVRVERVSHPLLQQQYELYRERLLQRCERRPVEQVLYHGTTAPAVPDICAHGFNRSFCGRNATVYGKGVYFARRASLSVQDRYSPPNADGHKAVFVARVLTGDYGQGRRGLRAPPLRGPGHVLLRYDSAVDCICQPSIFVIFHDTQALPTHLITCEHVPRASPDDPSGLPGRSPDT
modifications: mono-ADP-ribosylated (automodified; single ADPr units on glutamate residues); sites not stated
B1: binds.
